Data as given in article PMC314469, “Protein Interaction Networks by Proteome Peptide Scanning” (PLoS Biology, 2004).

T1: Abp1 SH3 (ABP1_YEAST), P15891
T1 chain: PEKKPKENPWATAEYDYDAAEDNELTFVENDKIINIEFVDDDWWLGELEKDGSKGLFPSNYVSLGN


Target: T1, Abp1 SH3 (ABP1_YEAST), P15891
Assay: SPOT array

normalised SPOT signal, Boehringer light units (BLU); mean over the file's lines of this peptide	Binder
40.3	TNTVDVTPKENKP [YOL148C 219-231]
38.3	TTPTIETPISSKP [YJL005W 370-382]
356	TVKKPARPWRAKP [YKL220C 449-461]
104	TTVPQQLPLEPLKP [YOR329C 400-413]
169	TVADTLQPGLPHKP [YKL148C 463-476]
1770	TTTYKSRPDRPKP [YBR289W 757-769]
3940	TSKHWVLPPRPRP [YKL109W 65-77]
191	TVIYANAPIEEKP [YLR414C 249-261]
126	TTKKQENPQWLRP [YBL014C 33-45]
617	TSKMLKPPKQRRP [YDR389W 475-487]
55.6	TPPLESGPLFKRP [YDR379W 561-573]
78.1	TNSNVPDPSTPSKP [YML016C 58-71]
11300	TPLSKPKPFMHKP [YBL031W 191-203]
140	TNIIDKGVQSPPKP [YDR176W 125-138]
83.1	TTGLNGSPTRGKP [YLL003W 876-888]
93.7	TNMEFQYPGTSKP [YLR249W 670-682]
65.5	TVEYIRPETLPKKP [YNR051C 370-383]
133	TSSSPLGPSAAKP [YDL224C 233-245]
749	TNGPRYSPQNPRP [YMR124W 350-362]
166	TTKGENIKITPQKP [YJR122W 470-483]
124	TRKSVNIKSWPLKP [YNL226W 110-123]
43.4	TSLFDNIPSIYRP [YGL169W 124-136]
133	TTAQDGSSALPSKP [YLR431C 386-399]
